Experimental data as given in article PMC6412877, “Novel Site-Specific Fatty Chain-Modified GLP-1 Receptor Agonist with Potent Antidiabetic Effects” (Molecules, 2019).

Columns and labels:
Mouse GLP-1R (mouse) = Mouse GLP-1R (mouse) (UniProt O35659)
Human GLP-1R (human) = Human GLP-1R (human) (UniProt P43220)
Sequence of Human GLP-1R (human) (P43220 24-463): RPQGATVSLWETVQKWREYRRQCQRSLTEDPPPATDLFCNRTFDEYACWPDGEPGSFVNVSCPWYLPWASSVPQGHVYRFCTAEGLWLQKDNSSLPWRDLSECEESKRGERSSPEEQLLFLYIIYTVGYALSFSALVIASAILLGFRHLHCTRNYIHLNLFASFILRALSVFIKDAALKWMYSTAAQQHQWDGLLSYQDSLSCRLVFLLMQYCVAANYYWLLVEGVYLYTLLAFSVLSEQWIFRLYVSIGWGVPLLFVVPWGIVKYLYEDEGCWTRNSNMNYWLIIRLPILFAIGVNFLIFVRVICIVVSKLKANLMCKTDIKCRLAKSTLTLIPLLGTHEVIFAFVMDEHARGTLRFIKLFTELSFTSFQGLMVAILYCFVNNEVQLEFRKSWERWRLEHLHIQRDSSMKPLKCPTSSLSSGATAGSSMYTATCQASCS

Sequence of Mouse GLP-1R (mouse) (O35659 22-463): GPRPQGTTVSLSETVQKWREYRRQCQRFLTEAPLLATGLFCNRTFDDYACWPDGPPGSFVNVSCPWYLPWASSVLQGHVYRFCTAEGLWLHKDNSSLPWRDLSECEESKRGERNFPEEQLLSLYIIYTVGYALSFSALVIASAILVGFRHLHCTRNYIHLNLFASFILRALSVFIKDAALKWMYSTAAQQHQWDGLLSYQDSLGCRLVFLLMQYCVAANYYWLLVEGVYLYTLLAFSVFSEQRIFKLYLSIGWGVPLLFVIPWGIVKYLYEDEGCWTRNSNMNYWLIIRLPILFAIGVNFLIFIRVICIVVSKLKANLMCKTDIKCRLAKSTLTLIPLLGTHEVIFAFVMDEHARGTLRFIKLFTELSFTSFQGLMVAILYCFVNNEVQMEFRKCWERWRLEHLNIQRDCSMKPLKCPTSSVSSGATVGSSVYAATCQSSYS

Row | Substance | EC50 (nM), Mouse GLP-1R activation, in vitro cell assay (Mouse GLP-1R (mouse)) [nM] | Emax (%), Mouse GLP-1R activation, in vitro cell assay (Mouse GLP-1R (mouse)) [%] | EC50 (nM), Human GLP-1R activation, in vitro cell assay (Human GLP-1R (human)) [nM]
1 | Liraglutide (peptide) | 0.185 | 89 | 
2 | Exendin-4 (from UniProt P26349 48-87) (peptide) |  | 100 | 0.052
